Reference: US20160002338A1 (Hoffmann-La Roche, published 2016)

What was measured:
[1] = biological target: T1, human recombinant HER4 ECD (human, UniProt Q15303 26-651); test: SPR Biacore T200, antibody captured, 25 C
T1 construct: also called full length Her4 ECD
T1 sequence: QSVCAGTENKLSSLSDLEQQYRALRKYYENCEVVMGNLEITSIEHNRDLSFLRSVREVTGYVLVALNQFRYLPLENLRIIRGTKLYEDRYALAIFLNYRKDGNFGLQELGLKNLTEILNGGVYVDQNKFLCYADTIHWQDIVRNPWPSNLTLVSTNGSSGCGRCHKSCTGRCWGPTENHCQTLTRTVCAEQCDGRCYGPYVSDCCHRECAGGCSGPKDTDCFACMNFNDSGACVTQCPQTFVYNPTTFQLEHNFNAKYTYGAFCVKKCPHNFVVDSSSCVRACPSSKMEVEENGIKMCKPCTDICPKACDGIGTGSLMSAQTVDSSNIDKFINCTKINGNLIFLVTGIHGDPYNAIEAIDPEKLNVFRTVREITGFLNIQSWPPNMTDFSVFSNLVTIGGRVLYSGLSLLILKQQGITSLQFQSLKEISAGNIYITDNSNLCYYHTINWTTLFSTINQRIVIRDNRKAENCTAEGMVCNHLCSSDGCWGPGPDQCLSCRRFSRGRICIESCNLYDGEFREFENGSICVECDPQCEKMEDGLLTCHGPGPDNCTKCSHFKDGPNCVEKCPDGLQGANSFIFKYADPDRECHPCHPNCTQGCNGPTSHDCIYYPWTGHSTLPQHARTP
Description: (§1) A Biacore T200 instrument (GE Healthcare) was mounted with a CM5 series sensor. The sensor was normalized in HBS-ET buffer (10 mM HEPES pH 7.4, 150 mM NaCl, 3 mM EDTA, 0.05% w/v Tween 20) according to the manufacturer's instructions. The sample buffer was the system buffer supplemented with 1 mg/ml CMD (Carboxymethyldextran, Sigma #86524). The system operated at 25° C. 6500 RU RAM-Fey (relative units of Fey-fragment RamIgG, GE Healthcare) were immobilized according to the manufacturer's instructions using amine coupling EDC/NHS chemistry on all four flow cells. The sensor was deactivated using 1M ethanolamine. […] Concentration dependent kinetics were measured. […] All analytes were injected for 5 min association time and 10 min dissociation time at 100 μl/min flow rate. The sensor capture system was regenerated by a 3 min injection at 10 μl/min of 10 mM glycine pH 1.7. Where possible kinetic data was evaluated using the Biacore T200 evaluation software.

TtSlyDcas = biological target: T2, TtSlyDcas; test: SPR Biacore T200, antibody captured, 25 C
T2 construct: control scaffold without insert; N-terminal Met may be present or not
T2 chain: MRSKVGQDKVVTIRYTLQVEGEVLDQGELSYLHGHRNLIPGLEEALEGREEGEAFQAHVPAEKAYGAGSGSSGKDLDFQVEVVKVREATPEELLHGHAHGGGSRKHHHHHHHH
Description: as §1

HER3 ECD-HRG complex [2] = biological target: T3, HER3 ECD-HRG complex (human, UniProt P21860 20-643); test: SPR Biacore T200, antibody captured, 25 C
T3 construct: also called Heregulin/Her-3 ECD
Description: as §1

human HER1 ECD = human HER1 ECD (human, UniProt P00533 25-645); test: SPR Biacore T200, antibody captured, 25 C
Description: as §1

HER4 ECD-HRG complex = biological target: T4, HER4 ECD-HRG complex (human, UniProt Q15303 26-651); test: SPR Biacore T200, antibody captured, 25 C
T4 construct: HER4 ECD preincubated with a 5-fold molar excess of Heregulin; also called HER-4-ECD-RG
T4 sequence 1: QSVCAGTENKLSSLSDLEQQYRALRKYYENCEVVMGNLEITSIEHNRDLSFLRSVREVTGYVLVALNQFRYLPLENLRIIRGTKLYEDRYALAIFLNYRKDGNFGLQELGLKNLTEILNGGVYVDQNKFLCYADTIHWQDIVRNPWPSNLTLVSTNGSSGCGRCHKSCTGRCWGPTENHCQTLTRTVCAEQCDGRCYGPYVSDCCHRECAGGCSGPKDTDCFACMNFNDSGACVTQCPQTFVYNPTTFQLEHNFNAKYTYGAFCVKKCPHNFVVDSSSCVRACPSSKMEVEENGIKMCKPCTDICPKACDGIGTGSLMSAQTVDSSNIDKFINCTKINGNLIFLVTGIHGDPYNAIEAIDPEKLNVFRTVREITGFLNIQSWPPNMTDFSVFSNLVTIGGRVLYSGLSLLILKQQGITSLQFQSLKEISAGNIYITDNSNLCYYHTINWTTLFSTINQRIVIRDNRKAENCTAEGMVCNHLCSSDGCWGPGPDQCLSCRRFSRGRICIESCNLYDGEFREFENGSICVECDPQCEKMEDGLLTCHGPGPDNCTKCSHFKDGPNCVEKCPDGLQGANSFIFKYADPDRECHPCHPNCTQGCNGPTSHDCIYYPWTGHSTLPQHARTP
T4 sequence 2: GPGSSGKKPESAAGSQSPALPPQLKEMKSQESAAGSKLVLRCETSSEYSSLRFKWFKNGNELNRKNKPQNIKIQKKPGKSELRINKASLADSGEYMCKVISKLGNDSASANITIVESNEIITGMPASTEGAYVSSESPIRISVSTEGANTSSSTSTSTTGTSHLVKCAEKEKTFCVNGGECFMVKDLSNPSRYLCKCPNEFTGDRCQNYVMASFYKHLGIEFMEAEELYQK
Description: as §1

[3] = biological target: T5, human recombinant HER3 ECD (human, UniProt P21860 20-643); test: SPR Biacore T200, antibody captured, 25 C
T5 construct: 68 kDa; also called human-Her3-ECD; full length Her3 ECD
Description: as §1

TtSlyDcys-Her3 = biological target: T6, TtSlyDcys-Her3; test: SPR Biacore T200, antibody captured, 25 C
T6 chain: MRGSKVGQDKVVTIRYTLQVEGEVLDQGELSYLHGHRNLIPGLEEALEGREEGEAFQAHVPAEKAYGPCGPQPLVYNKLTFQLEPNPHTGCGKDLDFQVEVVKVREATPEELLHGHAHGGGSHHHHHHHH
Description: as §1

TtSlyD-FKBP-Her3 = biological target: T7, TtSlyD-FKBP-Her3; test: SPR Biacore 3000, antibody captured, 25 C
T7 construct: 15 kDa; N-terminal Met may be present or not; also called Thermus thermophilus SlyD FKBP-Her3; thermo SlyD-Her3
T7 chain: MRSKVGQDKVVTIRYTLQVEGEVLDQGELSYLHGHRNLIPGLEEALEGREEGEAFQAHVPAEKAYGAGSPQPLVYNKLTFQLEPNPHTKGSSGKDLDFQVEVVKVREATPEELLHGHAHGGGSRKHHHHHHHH
Description: (§2) A CM5 series sensor was mounted into the system and was normalized in HBS-ET buffer (10 mM HEPES pH 7.4, 150 mM NaCl, 3 mM EDTA, 0.005% w/v Tween 20) according to the manufacturer's instructions. The sample buffer was the system buffer supplemented with 1 mg/ml CMD (Carboxymethyldextran). The system operated at 25° C. 10000 RU RAM-Fcγ(relative units of Fcγ-fragment Rabbit Anti-Mouse IgG/Jackson Laboratories) were immobilized according to the manufacturer's instructions using EDC/NHS chemistry on all flow cells. The sensor was deactivated using 1M ethanolamine. Analytes in solution were injected at 100 μl/min at different concentration steps of 0 nM, 1.1 nM, 3.7 nM, 11.1 nM, 33.1 nM and 90 nM for 2 min. The dissociation was monitored for 5 min. Acidic regeneration of the sensor surface was achieved using three consecutive injections of 10 mM Glycine pH 1.7 at 30 μl/min for 60 sec. Kinetic data were evaluated according to a Langmuir fit.

HER3 ECD-HRG complex [4] = biological target: T3, HER3 ECD-HRG complex; test: SPR Biacore 3000, antibody captured, 25 C
Description: as §2

[5] = biological target: T5, human recombinant HER3 ECD; test: SPR Biacore 3000, antibody captured, 25 C
Description: as §2

T5 sequence (P21860 20-643): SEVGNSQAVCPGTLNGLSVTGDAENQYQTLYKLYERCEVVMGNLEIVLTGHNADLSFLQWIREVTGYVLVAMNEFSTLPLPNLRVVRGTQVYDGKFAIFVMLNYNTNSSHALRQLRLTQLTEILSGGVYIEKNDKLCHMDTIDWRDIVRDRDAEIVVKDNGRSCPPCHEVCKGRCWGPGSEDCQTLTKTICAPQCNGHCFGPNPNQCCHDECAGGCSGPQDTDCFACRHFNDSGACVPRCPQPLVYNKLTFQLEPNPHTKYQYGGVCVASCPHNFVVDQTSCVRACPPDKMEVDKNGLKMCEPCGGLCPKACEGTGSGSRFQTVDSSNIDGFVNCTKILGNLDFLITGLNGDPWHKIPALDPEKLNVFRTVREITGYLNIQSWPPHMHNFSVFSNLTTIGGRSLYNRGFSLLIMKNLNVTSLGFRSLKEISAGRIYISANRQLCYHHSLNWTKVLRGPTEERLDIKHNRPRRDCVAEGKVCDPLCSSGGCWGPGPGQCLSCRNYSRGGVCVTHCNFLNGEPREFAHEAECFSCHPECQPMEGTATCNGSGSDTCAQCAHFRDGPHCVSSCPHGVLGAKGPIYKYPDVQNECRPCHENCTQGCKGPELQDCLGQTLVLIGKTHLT
T3 sequence (P21860 20-643 limits assumed, one chain of several): as the sequence (P21860 20-643) above

B1: anti-HER3/HER4 antibody M-05-74 (antibody, V domains shown)
VH: QVQLQQSGAELAKPGASVKMSCKTSGYTLTDYWIHWVKQRPGQGLEWIGYINPYTGYTESNQKFKDKATLTADKSSNTAYIQLSSLTSEDSAVYYCARPYYYGDYWGQGTTLTVSS
VL: QIVLTQSPAIMSASPGERVTITCSASSSVSYMHWFQQKPGTSPKLLIYSTSNLASGVPARFSGSGSGTSYSLTISRMEAEDAATYYCQQRSSYPFTFGSGTKLEIK
notes: murine monoclonal antibody from hybridoma (supernatant or purified); also called M-074; M-5-74
Molar Ratio MR [1]: 0.1
Molar Ratio MR (TtSlyDcas): 0
binding result (TtSlyDcas): no binding (tested: 90 nM)
Molar Ratio MR (HER3 ECD-HRG complex [2]): 0.8
binding result (human HER1 ECD): no binding (tested: 90 nM)
Molar Ratio MR (HER4 ECD-HRG complex): 0.8
Molar Ratio MR [3]: 0.1
Molar Ratio MR (TtSlyDcys-Her3): 1.9
Binding Late BL (TtSlyD-FKBP-Her3): 68.1 RU
Molar Ratio MR (TtSlyD-FKBP-Her3): 1.5
Binding Late BL (HER3 ECD-HRG complex [4]): 199 RU
Molar Ratio MR (HER3 ECD-HRG complex [4]): 0.8
Binding Late BL [5]: 36 RU
Molar Ratio MR [5]: 0.2
